# Assay results published in the supplement of paper PMC10201428.
# ± gives the standard deviation of the averaged measurements.
# B1: library; a variant is named by its letters at N, in order (parent)
# chain: ACATTTGTTGATACAACCATAAAATGATAATTACACCCATAAATTGATAATTATCACACCCANNNNNNNNNNNNNNCTCTGATCATAGTCAGACCAACATTGCTACGACCCGTATTCGCACCGACAC
# What was measured:
# [1] = variants of: B1; assay: relative integration efficiency (T-RL orientation) vs wild-type transposon end (log2 (normalized fold change)); transposon end mutated: right end (5 bp flank + 75 bp right end); higher = more efficient transposition; settings: with VchCAST RNA-guided transposition machinery (E. coli BL21(DE3) host, lacZ target)
# How it was run: (§1)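 In E. coli BL21(DE3), a T7-driven effector plasmid was paired with a pUC57 mini-transposon donor containing 1549 left-end or 1849 right-end barcoded transposon variants. Cells grew on plates with 0.1 mM IPTG at 37°C for 18 h. Relative integration efficiency was derived from Illumina reads of genomic integration junctions against input plasmids, as a log-transformed output/input barcode fold change normalised to reference barcodes.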
# [2] = variants of: B1; assay: relative integration efficiency (T-LR orientation) vs wild-type transposon end (log2 (normalized fold change)); transposon end mutated: right end (5 bp flank + 75 bp right end); higher = more efficient transposition; settings: with VchCAST RNA-guided transposition machinery (E. coli BL21(DE3) host, lacZ target)
# How it was run: as §1
Variant,relative integration efficiency (log2) [1],relative integration efficiency (log2) [2]
ATTTAACTATAACG A27T,-1.93 ± 0.43,1.735 ± 0.0049
ATTTAACTATAACG A27G,-1.43 ± 0.34,2.14 ± 0.29
ATTTAACTATAACG A27C,-1.49 ± 0.28,1.82 ± 0.022
ATTTAACTATAACG A42T,-0.805 ± 0.085,2.24 ± 0.14
ATTTAACTATAACG A42G,-1.62 ± 0.22,1.19 ± 0.16
ATTTAACTATAACG A42C,-1.82 ± 0.3,1.03 ± 0.13
ATTTAACTATAACG T9C,-0.756 ± 0.26,2.493 ± 0.0031
ATTTAACTATAACG T9G,-0.534 ± 0.082,2.39 ± 0.12
ATTTAACTATAACG T9A,-0.86 ± 0.087,2.15 ± 0.18
ATTTAACTATAACG G46A,-1.36 ± 0.26,2.007 ± 0.0045
ATTTAACTATAACG G46T,-1.25 ± 0.4,1.87 ± 0.23
ATTTAACTATAACG G46C,-1.79 ± 0.26,1.05 ± 0.12
ATTTAACTATAACG C61G,-0.633 ± 0.14,2.57 ± 0.16
ATTTAACTATAACG C61A,-0.657 ± 0.15,2.0647 ± 0.00092
ATTTAACTATAACG A33C,-1.12 ± 0.26,2.34 ± 0.17
ATTTAACTATAACG A33G,-0.971 ± 0.32,2.42 ± 0.046
TTTTATGATATTGC,-0.0751 ± 0.044,0.744 ± 0.14
ATTTAACTATAACG T45A,-1.14 ± 0.22,1.93 ± 0.065
ATTTAACTATAACG T45G,-1.16 ± 0.28,1.56 ± 0.031
ATTTAACTATAACG A29C,-1.83 ± 0.43,1.8 ± 0.15
ATTTAACTATAACG A29T,-1.09 ± 0.32,2.6 ± 0.24
ATTTAACTATAACG T54G,-1.12 ± 0.37,2.49 ± 0.13

Variant,relative integration efficiency (log2) [1],relative integration efficiency (log2) [2]
ATTTAACTATAACG T54C,-1.04 ± 0.22,2.37 ± 0.24
ATTTAACTATAACG T54A,-1.14 ± 0.19,2.49 ± 0.12
ATTTAACTATAACG A39G,-0.496 ± 0.057,2.47 ± 0.042
ATTTAACTATAACG A39T,-1.34 ± 0.21,1.59 ± 0.1
ATTTAACTATAACG A39C,-2.44 ± 0.36,0.461 ± 0.1
ATTTAACTATAACG G7C,-1.39 ± 0.16,1.24 ± 0.17
ATTTAACTATAACG C38T,-0.901 ± 0.15,2.05 ± 0.13
ATTTAACTATAACG C38A,-1.04 ± 0.17,2.02 ± 0.11
ATTTAACTATAACG C38G,-0.843 ± 0.15,2.06 ± 0.035
ATTTAACTATAACG T40G,-2.18 ± 0.11,0.496 ± 0.47
ATTTAACTATAACG T40A,-1.01 ± 0.19,1.82 ± 0.13
ATTTAACTATAACG T40C,-1.72 ± 0.32,1.196 ± 0.0054
ATTTAACTATAACG T6G,-6.3 ± 0.14,-5.38 ± 0.28
ATTTAACTATAACG T6A,-6.98 ± 0.9,-4.12 ± 0.43
ATTTAACTATAACG C18G,-1.04 ± 0.083,1.98 ± 0.099
ATTTAACTATAACG C18T,-0.685 ± 0.013,2.16 ± 0.14
ATTTAACTATAACG C18A,-0.906 ± 0.082,2.01 ± 0.13
ATTTAACTATAACG A53C,-1.32 ± 0.33,2.49 ± 0.26
ATTTAACTATAACG A53G,-1.38 ± 0.34,2.239 ± 0.0053
ATTTAACTATAACG C34A,-1.12 ± 0.27,2.11 ± 0.056
ATTTAACTATAACG C34G,-1.76 ± 0.18,1.73 ± 0.16
ATTTAACTATAACG C55A,-1.63 ± 0.35,2.34 ± 0.071

Variant,relative integration efficiency (log2) [1],relative integration efficiency (log2) [2]
ATTTAACTATAACG C55T,-1.15 ± 0.35,2.56 ± 0.14
ATTTAACTATAACG C55G,-1.37 ± 0.28,2.381 ± 0.011
ATTTAACTATAACG A50T,-1.29 ± 0.33,2.34 ± 0.11
ATTTAACTATAACG A50G,-1.62 ± 0.3,2.18 ± 0.28
ATTTAACTATAACG A50C,-1.36 ± 0.36,2.44 ± 0.1
ATTTAACTATAACG A56C,-1.09 ± 0.21,2.32 ± 0.19
ATTTAACTATAACG A56T,-0.909 ± 0.39,2.57 ± 0.2
ATTTAACTATAACG A30C,-1.2 ± 0.42,2.682 ± 0.016
ATTTAACTATAACG A30T,0.406 ± 0.54,4.401 ± 0.043
ATTTAACTATAACG A30G,-1.51 ± 0.13,2.11 ± 0.26
ATTTAACTATAACG T51C,-1.04 ± 0.24,2.48 ± 0.17
ATTTAACTATAACG T51G,-1.67 ± 0.15,2.1 ± 0.14
ATTTAACTATAACG T51A,-1.46 ± 0.28,2.29 ± 0.1
ATTTAACTATAACG T20C,-1.47 ± 0.3,1.3 ± 0.48
ATTTAACTATAACG T20G,-2 ± 0.4,0.721 ± 0.045
ATTTAACTATAACG T20A,-1.07 ± 0.11,2.04 ± 0.098
ATTTAACTATAACG T52G,-1.31 ± 0.41,2.29 ± 0.27
ATTTAACTATAACG T52A,-1.26 ± 0.2,2.3 ± 0.12
ATTTAACTATAACG T12A,-0.998 ± 0.097,2.03 ± 0.032
ATTTAACTATAACG T12G,-0.699 ± 0.2,1.76 ± 0.15
ATTTAACTATAACG C14G,-0.937 ± 0.17,1.76 ± 0.15
ATTTAACTATAACG A49C,-1.46 ± 0.19,2.17 ± 0.094

Variant,relative integration efficiency (log2) [1],relative integration efficiency (log2) [2]
ATTTAACTATAACG A49T,-1.3 ± 0.35,2.31 ± 0.04
ATTTAACTATAACG A58C,-0.52 ± 0.37,2.86 ± 0.073
ATTTAACTATAACG A58T,-0.708 ± 0.029,2.39 ± 0.19
ATTTAACTATAACG G10C,-1.15 ± 0.31,0.7 ± 0.19
ATTTAACTATAACG G10A,-0.62 ± 0.18,1.89 ± 0.087
ATTTAACTATAACG G10T,-1.54 ± 0.43,0.15 ± 0.026
ATTTAACTATAACG A47G,-0.679 ± 0.11,2.25 ± 0.039
ATTTAACTATAACG A47T,-1.17 ± 0.26,1.84 ± 0.026
ATTTAACTATAACG A47C,-0.686 ± 0.38,2.63 ± 0.064
ATTTAACTATAACG T31C,-0.932 ± 0.22,2.62 ± 0.071
ATTTAACTATAACG T31A,-1.32 ± 0.36,2.39 ± 0.16
ATTTAACTATAACG T31G,-1.44 ± 0.31,2.54 ± 0.17
ATTTAACTATAACG G26C,-2.84 ± 0.47,1.17 ± 0.16
ATTTAACTATAACG G26A,-1.27 ± 0.28,2.69 ± 0.084
ATTTAACTATAACG G26T,-1.75 ± 0.32,2.24 ± 0.073
ATTTAACTATAACG T25A,-1.13 ± 0.11,2.26 ± 0.046
ATTTAACTATAACG T25G,-1.44 ± 0.3,1.851 ± 0.01
ATTTAACTATAACG T25C,-1.07 ± 0.25,2.2 ± 0.17
ATTTTTGATATTGC,-0.244 ± 0.095,1.64 ± 0.1
ATTTAACTATAACG A43T,-0.99 ± 0.12,2.15 ± 0.11
ATTTAACTATAACG A43C,-0.798 ± 0.095,2.4 ± 0.038
ATTTAACTATAACG A43G,-0.724 ± 0.15,2.29 ± 0.09

Variant,relative integration efficiency (log2) [1],relative integration efficiency (log2) [2]
ATTTAACTATAACG T8A,-1.56 ± 0.29,0.918 ± 0.079
ATTTAACTATAACG T8C,-1.8 ± 0.42,-0.0325 ± 0.43
ATTTAACTATAACG T8G,-6.07 ± 0.37,-5.36 ± 1.4
ATTTAACTATAACG C36G,-1.16 ± 0.22,1.95 ± 0.11
ATTTAACTATAACG C36A,-0.593 ± 0.052,2.4 ± 0.13
ATTTAACTATAACG T48G,-1.18 ± 0.2,1.85 ± 0.083
ATTTAACTATAACG T48C,-1.24 ± 0.25,2.03 ± 0.086
ATTTAACTATAACG A62C,-1.03 ± 0.27,2.22 ± 0.21
ATTTAACTATAACG C57G,-0.953 ± 0.42,2.5 ± 0.16
ATTTAACTATAACG C57A,-0.68 ± 0.085,2.48 ± 0.17
ATTTAACTATAACG A41T,-0.673 ± 0.15,2.347 ± 0.0099
ATTTAACTATAACG A41C,-1.53 ± 0.21,1.39 ± 0.29
ATTTAACTATAACG T44G,-0.646 ± 0.027,2.17 ± 0.033
ATTTAACTATAACG T44C,-0.948 ± 0.24,2.28 ± 0.14
ATTTAACTATAACG T44A,-0.682 ± 0.22,2.32 ± 0.13
ATTTAACTATAACG A35C,-0.737 ± 0.15,2.11 ± 0.15
ATTTAACTATAACG A35T,-1 ± 0.29,2.07 ± 0.25
ATTTAACTATAACG T32G,-1.87 ± 0.28,2.2 ± 0.18
ATTTAACTATAACG T32A,-1.5 ± 0.28,2.13 ± 0.036
ATTTAACTATAACG T28C,-1.29 ± 0.26,2.16 ± 0.037
ATTTAACTATAACG T28G,-1.52 ± 0.28,1.89 ± 0.21
